The target of test [1] is T1, CD19 on the surface of Raji cells (UniProt P15391 20-556, limits assumed).
T1 construct: whole, on cells; also called antigen CD19
T1 sequence (looked up): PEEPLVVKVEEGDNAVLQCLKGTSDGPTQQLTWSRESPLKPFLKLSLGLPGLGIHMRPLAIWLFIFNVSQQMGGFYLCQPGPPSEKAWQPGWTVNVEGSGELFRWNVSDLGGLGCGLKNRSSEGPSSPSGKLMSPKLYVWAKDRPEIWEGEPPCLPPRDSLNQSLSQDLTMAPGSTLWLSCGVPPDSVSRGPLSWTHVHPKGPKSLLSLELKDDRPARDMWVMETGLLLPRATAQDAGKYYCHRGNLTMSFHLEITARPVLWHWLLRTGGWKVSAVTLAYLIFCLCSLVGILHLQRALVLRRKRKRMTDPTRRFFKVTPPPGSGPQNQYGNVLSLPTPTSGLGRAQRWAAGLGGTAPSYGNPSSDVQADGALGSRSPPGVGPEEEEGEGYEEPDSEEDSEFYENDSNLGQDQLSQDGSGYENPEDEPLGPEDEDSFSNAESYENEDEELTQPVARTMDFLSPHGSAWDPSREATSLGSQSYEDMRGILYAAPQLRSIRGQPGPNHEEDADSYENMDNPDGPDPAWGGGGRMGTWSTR
The test is described as follows: flow cytometry on Raji cells, Alexa Fluor 488 anti-human IgG detection. Background: Flow cytometry measures light scatter and fluorescence of single cells or particles in a stream.

Test [2] addresses T2, CD22 on the surface of Raji cells (UniProt P20273 20-847, limits assumed).
T2 construct: whole, on cells; also called antigen CD22
Described as above.

B1: CD19 IgG antibody (antibody, V domains shown)
VH: QVQLVQSGAEVKKPGSSVKVSCKASGYAFSSYWMNWVRQAPGQGLEWMGQIWPGDSDTNYAQKFQGRVTITADESTSTAYMELSSLRSEDTAVYYCARRETTTVGRYYYAMDYWGQGTTVTVSS
VL: DIQLTQSPSFLSASVGDRVTITCKASQSVDYSGDSYLNWYQQKPGKAPKLLIYDASNLVSGVPSRFSGSGSGTEFTLTISSLQPEDFATYYCQQSTENPWTFGGGTKLEIKR
With B1, in test [1], the binding result was “binds”.

B2: CD19 antibody antigen-binding fragment Fab (Fab, V domains shown)
VH: B1 VH
VL: B1 VL
notes: also called CD19 Fab
With B2, the binding result in test [1] is on record as “binds”.

B3: CD22 IgG antibody (antibody, V domains shown)
VH: EVQLVQSGAEVKKPGASVKVSCKASGYRFTNYWIHWVRQAPGQGLEWIGGINPGNNYATYRRKFQGRVTMTADTSTSTVYMELSSLRSEDTAVYYCTREGYGNYGAWFAYWGQGTLVTVSS
VL: DVQVTQSPSSLSASVGDRVTITCRSSQSLANSYGNTFLSWYLHKPGKAPQLLIYGISNRFSGVPDRFSGSGSGTDFTLTISSLQPEDFATYYCLQGTHQPYTFGQGTKVEIKR
Consider B3, for which the binding result in test [2] is given as “binds”.

The values are drawn from patent EP4740964A1, “NANO DELIVERY SYSTEM, PREPARATION METHOD THEREFOR AND USE THEREOF” (Chen, Haiyan, priority 2023, dated 2025).
